B1: GST-EBP50-CT (domain or fragment)
chain: KENSREALAEAALESPRPALVRSASSDTSEELNSQDSPPKQDSTAPSSTSSSDPILDFNISLAMAKERAHQKRSSKRAPQMDWSKKNELFSNL
B2: GST-ICAM2-CT (domain or fragment)
chain: FGQHLRQQRMGTYGVRAAWRRLPQAFRP

Biological target: His-ezrin WT (UniProt P15311 1-586)
Assay: pull-down

Chain of His-ezrin WT (P15311 whole entry): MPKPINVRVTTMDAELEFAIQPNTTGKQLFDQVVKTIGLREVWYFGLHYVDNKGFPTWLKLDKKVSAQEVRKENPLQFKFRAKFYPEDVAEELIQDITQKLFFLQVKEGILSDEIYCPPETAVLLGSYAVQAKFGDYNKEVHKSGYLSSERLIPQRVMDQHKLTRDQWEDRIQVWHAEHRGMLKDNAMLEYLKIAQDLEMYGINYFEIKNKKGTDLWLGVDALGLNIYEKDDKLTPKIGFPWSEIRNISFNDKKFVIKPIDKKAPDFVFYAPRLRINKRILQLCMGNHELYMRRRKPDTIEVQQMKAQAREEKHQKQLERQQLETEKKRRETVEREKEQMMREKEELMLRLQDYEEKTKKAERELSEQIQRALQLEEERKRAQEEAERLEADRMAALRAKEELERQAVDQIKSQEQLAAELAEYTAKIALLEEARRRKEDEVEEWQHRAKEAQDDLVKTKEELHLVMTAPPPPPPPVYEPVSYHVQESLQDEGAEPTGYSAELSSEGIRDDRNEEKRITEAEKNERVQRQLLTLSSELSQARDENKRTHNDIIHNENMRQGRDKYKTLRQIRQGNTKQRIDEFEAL

Binder | binding result
B1 | binds
B2 | binds

From paper PMC7333480 (Journal of Molecular Cell Biology, 2019)
